2 molecules from patent US20200239573A1 (CRESCENDO BIOLOGICS, published 2020) can be followed below.

“And” between values parts separate entries of the source, which are not always exact repeats. Equal entries are not always repeated. Where two headings read alike, the source gives them in different places.

The target of assay [1] is T1, human PD-1 expressed on cells (CHO human PD-1 cells) (human, UniProt Q15116 21-288). Description: cell-based or functional assay.
Assay [2] has as its target T1, human PD-1 expressed on cells (CHO …). Description: cell-based or functional assay. The source holds these as a separate data set.
Assay [3] addresses T2, mouse PD-1 protein (mouse, UniProt Q02242 25-167).
T2 construct: Detected with anti human-Fc cryptate, so probably Fc tagged; also called mouse PD-1 (R&D Systems cat no. 1021-PD)
T2 sequence (looked up): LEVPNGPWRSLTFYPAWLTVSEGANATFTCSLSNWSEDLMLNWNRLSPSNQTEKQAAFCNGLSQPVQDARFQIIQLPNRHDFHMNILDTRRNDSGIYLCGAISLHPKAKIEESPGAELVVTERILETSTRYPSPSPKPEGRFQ
Description: HTRF binding. In general terms: TR-FRET usually uses a lanthanide donor and a delayed reading to cut background.

In assay [4] the target is T3, Strep tagged recombinant human PD-1 (human, UniProt Q15116 25-170, limits assumed).
T3 construct: the whole entry is named; also called strep tagged human PD-1; not shown: Strep tag
The assay is described as follows: SPR Biacore T200, strep-tagged PD-1 amine-coupled, single cycle kinetics. For orientation: SPR reads the build-up and loss of mass on a sensor chip optically.

Assay [5] concerns the target T1, human PD-1 expressed on cells (CHO …). The assay is described as follows: FMAT 1.57 epitope competition assay on CHO human PD-1 cells; competitor: 1.57-Strep tagged protein; 4 days in mouse serum. As for the experimental part: (§1) For the epitope competition assay reagents were prepared in FMAT assay buffer. […] Plates were incubated for a minimum of 1.5 hours at room temperature then fluorescence measured in the FL2 (502 nm-537 nm) and FL5 (677-800 nm) channels on the Mirrorball plate reader (TTP) following excitation at 488 nm and 640 nm. Data was expressed as a % of the total binding control (i.e. % control) after subtraction of the background signal determined from the non-specific binding control wells.
(§2) Serum stability of VH and multivalent VH constructs was assessed by measurement of their activity following incubation for 0, 1, 4 or 7 days in mouse serum (Sigma M5905).

Assay [6] shares this target. Description: cell-based or functional assay. The source holds these as a separate data set.
The target in assay [7] is human PD-1 expressed on cells (CHO human PD-1 cells) (human) (UniProt Q15116). Description: FMAT 1.57 epitope competition assay on CHO human PD-1 cells; competitor: 1.57-Strep tagged protein; 0 days in mouse serum.
Assay [8] has as its target T1, human PD-1 expressed on cells (CHO …). The assay is described as follows: FMAT inhibition assay on CHO human PD-1 cells; blocked ligand: human Fc tagged human PD-L1; a separate run from Figure 4 a). As for the experimental part:
All reagents and serially diluted VH were prepared in FMAT assay buffer. […] Plates were incubated for 2 hours at room temperature then fluorescence measured in the FL2 (502 nm-537 nm) and FL5 (677-800 nm) channels on the Mirrorball plate reader (TTP) following excitation at 488 nm and 640 nm. Data was expressed as a % of the total binding control (i.e. % control) after subtraction of the background signal determined from the non-specific binding control wells.

The target of assay [9] is T4, recombinant human PD-1 Fc chimera (human, UniProt Q15116 25-167).
T4 construct: Bought protein; also called human PD-1-huFc; huPD-1-Fc; not shown: human Fc
Description: SPR Biacore T200, PD-1-Fc captured on protein G, single cycle kinetics. How it is done:
Single cycle kinetics assays were used to study the interaction between human Fc tagged human PD-1 with Humabody® on a Biacore T200 instrument (GE Healthcare). Protein G was amine coupled to two flow cells of a CM-5 chip. Human Fc tagged recombinant human PD-1 was captured onto one of the flow cells. The other was used as the reference flow cell. A five point, three-fold dilution series of each Humabody® was made with a top concentration within the range of 50 to 150 nM. The binding kinetics were followed by flowing the Humabody® over the chip surface in HBS EP+ buffer at a flow rate of 30 μl/min. The contact time for each of the association steps was 180 seconds and the dissociation step was 3600 seconds. The data was fitted to a 1:1 binding model after double reference subtraction using the Biacore T200 Evaluation software.

Assay [10] addresses human PD-1 expressed on cells (CHO human PD-1 cells) (human) (UniProt Q15116). Description: FMAT 1.57 epitope competition assay on CHO human PD-1 cells; competitor: 1.57-Strep tagged protein; 1 day in mouse serum.
In assay [11] the target is T1, human PD-1 expressed on cells (CHO …). Described as above. As for the experimental part:
as §1, §2

Assay [12] has as its target T4, recombinant human PD-1 Fc chimera. The assay is described as follows: HTRF binding, 2 nM PD-1, anti-Fc cryptate and anti-His-D2. As for the experimental part: (§3) e) Species Cross Reactivity Testing Purified […] were tested for their ability to bind to human PD-1 (R&D Systems cat no. 1086-PD), cynomolgus PD-1 (Acro Biosystems cat no. PD-1-05254) and mouse PD-1 (R&D Systems cat no. 1021-PD) in an HTRF Binding assay format. All reagents and serially diluted VH were prepared in assay buffer containing PBS, 0.1% BSA and 0.4M Potassium Fluoride. Samples or assay buffer (non-specific binding) were incubated with 2 nM human/cynomolgus or mouse PD-1, 1 nM Anti human-Fc Cryptate PAb (Cisbio cat. no. 61HFCKLB) and 30 nM anti His-D2 (CisBio cat no 61HISDLA) in black 384-shallow well assay plates for a minimum of 3 hours at room temperature. Time-resolved fluorescent emission at 620 nm and 665 nm was measured following excitation at 337 nm on the BMG PHERAstar plate reader. The HTRF ratio were calculated ((665 nm emission/620 nm emission)*10000) and the data corrected for (non-specific binding) to give the specific binding signal.

Assay [13] addresses T5, cynomolgus PD-1 recombinant protein (cynomolgus, UniProt B0LAJ3 25-170).
T5 construct: Detected with anti human-Fc cryptate, so probably Fc tagged; also called cyno PD-1; cynomolgus PD-1 (Acro Biosystems cat no. PD-1-05254); not shown: The vendor's carrier tag; It is probably a human Fc, since detection used anti human-Fc cryptate
The assay is described as above. As for the experimental part:
as §3

Assay [14] addresses human PD-1 expressed on cells (CHO human PD-1 cells) (human) (UniProt Q15116). The assay is described as follows: cell-based or functional assay.
The target of assay [15] is T1, human PD-1 expressed on cells (CHO …). The assay is described as follows: FMAT 1.57 epitope competition assay on CHO human PD-1 cells; competitor: 1.57-Strep tagged protein; 0 days in mouse serum. How it is done: as §1, §2
Assay [16] shares this target. Description: FMAT 1.57 epitope competition assay on CHO human PD-1 cells; competitor: 1.57-Strep tagged protein; 7 days in mouse serum. How it is done: as §1, §2
For assay [17], the target named is T2, mouse PD-1 protein. The assay is described as follows: HTRF binding, 2 nM mouse PD-1. How it is done:
as §3

The target of assay [18] is human PD-1 expressed on cells (CHO human PD-1 cells) (human) (UniProt Q15116). Description: FMAT 1.57 epitope competition assay on CHO human PD-1 cells; competitor: 1.57-Strep tagged protein; 7 days in mouse serum.
Assay [19] shares this target. Description: FMAT inhibition assay on CHO human PD-1 cells; blocked ligand: human Fc tagged human PD-L1.
Assay [20] deals with human PD-1 on primary human CD4+ T cells (human, UniProt Q15116 21-288). Description: flow cytometry on PHA-stimulated human CD4+ T cells (live cell gate). As for the experimental part: Binding of monovalent single domain antibodies and multivalent binding agents to T cells was measured using flow cytometry. […] T-cells were stimulated with 2.5 μg/ml PHA for 2-4 days in RPMI media supplemented with 10% FBS, 2 mM Glutamine, 1× Pen/Strep. Cells were transferred into 96 well plates (75000 per well), blocked for 10 mins with PBS/1% BSA, then incubated with serially diluted VH in staining buffer (PBS/1% BSA) for 1 hour at 4° C. Cells were washed with staining buffer by centrifugation then incubated with 10 μg/ml biotinylated Anti His antibody for 40 mins at 4° C. Cells were washed again then stained with Streptavidin Alexa Fluor-488 (10 μg/ml) and 1:5000 diluted Live Dead near IR stain (Molecular Probes cat no. L10119) for 30 mins at 4° C. After further washing cells were fixed and fluorescence measured by flow cytometry.
Sequence of human PD-1 on primary human CD4+ T cells (Q15116 21-288): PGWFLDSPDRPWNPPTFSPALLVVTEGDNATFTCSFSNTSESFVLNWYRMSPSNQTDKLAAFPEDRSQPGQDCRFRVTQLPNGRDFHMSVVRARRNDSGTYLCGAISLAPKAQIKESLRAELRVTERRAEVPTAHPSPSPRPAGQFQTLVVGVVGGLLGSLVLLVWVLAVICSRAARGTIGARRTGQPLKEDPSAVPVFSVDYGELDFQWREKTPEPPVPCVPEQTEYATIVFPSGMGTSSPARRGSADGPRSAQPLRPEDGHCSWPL

T1 sequence (Q15116 21-288): as above
Sequence of human PD-1 expressed on cells (CHO human PD-1 cells) (human) (Q15116 21-288): as above
T4 sequence (Q15116 25-167 limits assumed, change not shown): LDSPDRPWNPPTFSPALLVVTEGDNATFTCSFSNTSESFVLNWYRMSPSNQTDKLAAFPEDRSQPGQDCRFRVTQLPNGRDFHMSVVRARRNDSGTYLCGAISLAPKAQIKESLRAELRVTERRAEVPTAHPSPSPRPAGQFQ
T3 sequence (Q15116 25-170 limits assumed): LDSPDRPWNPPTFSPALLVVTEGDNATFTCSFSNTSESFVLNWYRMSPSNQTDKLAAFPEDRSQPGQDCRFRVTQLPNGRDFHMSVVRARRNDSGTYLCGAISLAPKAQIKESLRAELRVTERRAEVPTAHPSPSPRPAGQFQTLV
T5 sequence (B0LAJ3 entry or part of it limits assumed): as the sequence (Q15116 25-170 limits assumed) above, with D2E, P10A, V19L, T35A, Q75R, T144A counted along it

B1: 1.57-4GS-1.57 (other)
chain: QVQLVESGGGLVKPGGSLRLSCAASGFTFSDNSMTWMRQAPGKGLEWVSYISSGGGVIFYADSVKGRFTISRDNAKNSLYLQMNSLRADDTAVYYCAREAPLRLGESPHDAFDISGQGTMVTVSSGGGGSGGGGSGGGGSGGGGSQVQLVESGGGLVKPGGSLRLSCAASGFTFSDNSMTWMRQAPGKGLEWVSYISSGGGVIFYADSVKGRFTISRDNAKNSLYLQMNSLRADDTAVYYCAREAPLRLGESPHDAFDISGQGTMVTVSS
notes: bivalent construct of two VH domains in one chain
As a reminder, the Kd is the constant that tells how readily two partners part at equilibrium. By koff is commonly meant a measure of how fast the partners let go of each other. What is called kon is a measure of how fast the partners come together. Regarding B1, the “EC50 (M), reporter assay” value in assay [1] was determined as 1e-09 M. The “EC50 (M), human PD-1 reporter gene assay” value in assay [2] is 1e-09 M. Also, the binding result in assay [3] is “no binding”. Also, in assay [4], the Kd was 0.0173 nM, the koff was 1.54e-05 s⁻¹ and the kon worked out at 888000 M⁻¹ s⁻¹.

B2: Humabody® 1.57 (VHH)
VHH: QVQLVESGGGLVKPGGSLRLSCAASGFTFSDNSMTWMRQAPGKGLEWVSYISSGGGVIFYADSVKGRFTISRDNAKNSLYLQMNSLRADDTAVYYCAREAPLRLGESPHDAFDISGQGTMVTVSS
notes: human VH single domain antibody
A word on the EC50: it is the midpoint of the concentration-response curve. The EC50 (read off the curve) is the concentration needed to bring the measured effect to its halfway point. For B2, the “IC50 (read off the curve)” value in assay [5] is about 1 nM; in assay [7], 2 nM; in assay [8], about 4 nM; in [10], 1 nM; in [11], about 0.7 nM; in [15], about 0.4 nM. Further, the figures for the “IC50 (read off the curve)” value in assay [16], in [18] and in [19] were about 2 nM, 3 nM and 6 nM, respectively. Further, the “Reporter Assay EC50” value in assay [6] is 8.6 nM. Moreover, in assay [9], the Kd is 0.0586 nM and 0.0533 nM. Besides, the koff in [9] was 1.99e-05 s⁻¹ and 2.32e-05 s⁻¹. Besides, in [9], the kon is 340000 M⁻¹ s⁻¹ and 435000 M⁻¹ s⁻¹. The results for the EC50 in assay [12] and in assay [13] were 0.59 nM and 0.75 nM, respectively. In assay [14], the EC50 (M), human PD-1 reporter gene assay stood at 1e-08 M. Besides, the EC50 (M), reporter assay in assay [14] amounted to 1e-08 M. Besides, in [17], the binding result is listed as “no binding”. Also, the EC50 (read off the curve) in assay [20] is 1 nM; in assay [20] (record 2), about 0.2 nM.
